The target of this assay is AgrC-I (wild type) dimer embedded in nanodiscs (Staphylococcus aureus). In words: fluorescence polarisation.

Turning to “AIP-I (native autoinducing peptide of agr group 1)”, the equilibrium dissociation constant (Kd) (in general, a measure of binding affinity in units of concentration) was determined as 63 nM.

With “AIP-II (native autoinducing peptide of agr group 2)”, the Kd stood at 160 nM.

These data come from article PMC4004102.
